{
  "source": "patent US20090208512A1",
  "target": "human recombinant Factor VIII (human) (UniProt P00451)",
  "sequence (P00451 20-2351)": "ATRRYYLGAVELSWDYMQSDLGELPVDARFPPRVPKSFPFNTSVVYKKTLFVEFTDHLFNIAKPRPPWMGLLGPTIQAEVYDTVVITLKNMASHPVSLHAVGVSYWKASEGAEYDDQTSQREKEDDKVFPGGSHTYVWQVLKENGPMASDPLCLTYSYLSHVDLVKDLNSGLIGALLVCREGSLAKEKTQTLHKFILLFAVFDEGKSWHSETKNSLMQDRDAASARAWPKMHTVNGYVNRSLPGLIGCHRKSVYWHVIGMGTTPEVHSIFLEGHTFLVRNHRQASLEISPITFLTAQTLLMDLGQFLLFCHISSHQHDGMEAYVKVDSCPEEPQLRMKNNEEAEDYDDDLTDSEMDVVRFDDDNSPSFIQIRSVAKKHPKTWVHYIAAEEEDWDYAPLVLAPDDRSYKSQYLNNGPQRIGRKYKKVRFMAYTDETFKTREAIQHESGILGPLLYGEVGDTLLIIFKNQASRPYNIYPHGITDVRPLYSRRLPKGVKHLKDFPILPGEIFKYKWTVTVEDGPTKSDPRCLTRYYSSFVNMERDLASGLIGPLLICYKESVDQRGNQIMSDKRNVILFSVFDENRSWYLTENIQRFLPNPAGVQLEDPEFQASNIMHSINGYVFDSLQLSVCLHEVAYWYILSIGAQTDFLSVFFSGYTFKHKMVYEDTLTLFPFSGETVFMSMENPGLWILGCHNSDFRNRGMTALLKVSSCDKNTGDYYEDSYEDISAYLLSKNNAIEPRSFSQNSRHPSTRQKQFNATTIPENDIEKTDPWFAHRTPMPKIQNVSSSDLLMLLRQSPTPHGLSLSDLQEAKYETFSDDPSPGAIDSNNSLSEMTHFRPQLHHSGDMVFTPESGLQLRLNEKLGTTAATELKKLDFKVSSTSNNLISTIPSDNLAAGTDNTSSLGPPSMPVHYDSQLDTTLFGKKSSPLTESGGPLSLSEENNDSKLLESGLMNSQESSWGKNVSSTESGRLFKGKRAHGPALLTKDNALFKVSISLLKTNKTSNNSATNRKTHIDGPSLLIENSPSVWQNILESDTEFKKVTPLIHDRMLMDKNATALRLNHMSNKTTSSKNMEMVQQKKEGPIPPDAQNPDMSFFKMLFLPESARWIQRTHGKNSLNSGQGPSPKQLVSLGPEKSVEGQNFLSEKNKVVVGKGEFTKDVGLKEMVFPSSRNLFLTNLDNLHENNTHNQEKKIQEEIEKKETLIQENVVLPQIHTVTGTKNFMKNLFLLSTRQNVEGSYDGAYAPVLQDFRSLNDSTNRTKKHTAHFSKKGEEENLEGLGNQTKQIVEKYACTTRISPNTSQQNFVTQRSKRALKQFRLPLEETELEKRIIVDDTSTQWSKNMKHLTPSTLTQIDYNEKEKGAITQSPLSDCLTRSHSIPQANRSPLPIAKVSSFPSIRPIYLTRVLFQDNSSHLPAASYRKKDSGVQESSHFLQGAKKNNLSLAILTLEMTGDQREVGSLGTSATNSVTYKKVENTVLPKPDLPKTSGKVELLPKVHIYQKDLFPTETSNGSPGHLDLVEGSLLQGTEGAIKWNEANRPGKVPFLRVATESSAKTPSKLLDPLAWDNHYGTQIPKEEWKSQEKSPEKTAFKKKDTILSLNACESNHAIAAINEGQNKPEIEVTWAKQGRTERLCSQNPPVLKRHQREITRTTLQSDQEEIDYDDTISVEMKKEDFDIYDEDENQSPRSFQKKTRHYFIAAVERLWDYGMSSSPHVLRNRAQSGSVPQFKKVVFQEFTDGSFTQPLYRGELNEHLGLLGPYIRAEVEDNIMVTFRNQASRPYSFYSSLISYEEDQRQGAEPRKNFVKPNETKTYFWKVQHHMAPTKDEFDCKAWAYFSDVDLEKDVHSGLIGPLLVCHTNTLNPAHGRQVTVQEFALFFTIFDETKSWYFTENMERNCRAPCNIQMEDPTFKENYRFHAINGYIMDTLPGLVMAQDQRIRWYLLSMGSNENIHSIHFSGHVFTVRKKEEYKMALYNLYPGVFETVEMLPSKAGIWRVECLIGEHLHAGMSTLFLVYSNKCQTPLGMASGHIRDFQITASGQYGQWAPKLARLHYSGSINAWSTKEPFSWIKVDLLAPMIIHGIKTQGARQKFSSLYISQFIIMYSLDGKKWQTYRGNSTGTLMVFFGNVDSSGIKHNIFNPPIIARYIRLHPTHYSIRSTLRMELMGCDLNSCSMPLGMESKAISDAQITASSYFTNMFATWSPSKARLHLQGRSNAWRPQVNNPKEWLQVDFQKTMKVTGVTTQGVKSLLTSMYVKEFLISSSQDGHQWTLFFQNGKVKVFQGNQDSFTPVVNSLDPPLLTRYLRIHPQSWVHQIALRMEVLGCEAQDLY",
  "test": "cell-based or functional assay",
  "data": [
    {"substance": "von Willebrand Factor (from UniProt P04275 764-2813)", "values": [
      {"measurement": "inhibition of hydrolysis of Factor VIII by anti-Factor VIII IgG", "result": 36.9, "unit": "%"}
    ]}
  ]
}
